Experimental data published in publication PMC7152510 (Nature structural & molecular biology, 2017).
Numbering of substitutions follows the chain as printed. Names and notes keep the numbering of the source. Like-named read-outs stand apart in the source and are kept apart here.

Key:
[1] = target: ΔMIT katanin p60 (E293Q) (Caenorhabditis elegans); experiment: solution SAXS
AUC [2] = target: the molecule itself; experiment: AUC
AUC [3] = target: the molecule itself; experiment: AUC; remark: listed apart in the source

ΔMIT katanin p60 (E293Q) (domain or fragment)
stoichiometry N [1]: 6

B1: Caenorhabditis elegans katanin p60 (MEI-1), catalytic subunit, wild type (enzyme, UniProt P34808 1-472, looked up)
chain: MNGDVQSVIRGYLERAQVAKTMSDAGRWNEAGDLLRQLMTDVKSCKISASNRDEHDARNTFLRALEANLKLVQQNVRDEDDLHEAMTRQSGSPEPPADPDVWSKPSPPLPSSSKFGATKKGVGAAGPRPREISKSTSSMSTNPADVKPANPTQGILPQNSAGDSFDASAYDAYIVQAVRGTMATNTENTMSLDDIIGMHDVKQVLHEAVTLPLLVPEFFQGLRSPWKAMVLAGPPGTGKTLIARAIASESSSTFFTVSSTDLSSKWRGDSEKIVRLLFELARFYAPSIIFIDEIDTLGGQRGNSGEHEASRRVKSEFLVQMDGSQNKFDSRRVFVLAATNIPWELDEALRRRFEKRIFIPLPDIDARKKLIEKSMEGTPKSDEINYDDLAARTEGFSGADVVSLCRTAAINVLRRYDTKSLRGGELTAAMESLKAELVRNIDFEAALQAVSPSAGPDTMLKCKEWCDSFGAM
stoichiometry N (AUC [2]): 6

B2: Caenorhabditis elegans katanin p60 (E293Q), Walker B mutant, full-length (enzyme, UniProt P34808 1-472, looked up)
chain: B1 chain with E293Q
stoichiometry N (AUC [3]): 6
